Experiments:
Test in all cases: pull-down; GST-tagged Rab6^GTP (WT = Q72L, or mutant) held on glutathione Sepharose columns, 1 mM GTP and 2 mM MgCl2 added for 30 min; purified BicD2-CTD added and incubated 30 min; washed, eluted with glutathione; SDS-PAGE (16%), Coomassie, band intensities quantified with ImageJ, ratio of bound BicD2-CTD/Rab6^GTP normalised to WT = 1; three experiments
Settings in all cases: both partners purified
[1] = molecular target: T1, GST-tagged Rab6^GTP (Rab6a/Q72L) Q65A mutant (human, UniProt P20340 1-208, Q72L | Q65A)
T1 construct: Rab6a, human, full length, Q72L background with Q65A; Loaded with 1 mM GTP and 2 mM MgCl2 on the column; source: E. coli BL20(DE3)-RIL, purified by glutathione Sepharose, washed but not eluted; not shown: GST, N-terminal, kept

[2] = molecular target: T2, full-length GTP-bound Rab6a/Q72L with N-terminal GST tag (human, UniProt P20340 1-208, Q72L)
T2 construct: pGEX6P1 vector, PreScission site after GST; Construct described in Gibson et al, 2023; also called Rab6^GTP WT; Rab6^GTP; source: E. coli BL20(DE3)-RIL, purified by glutathione Sepharose, washed but not eluted; not shown: GST, N-terminal, kept

[3] = molecular target: T3, GST-tagged Rab6^GTP (Rab6a/Q72L) S52A mutant (human, UniProt P20340 1-208, Q72L | S52A)
T3 construct: Rab6a, human, full length, Q72L background with S52A; Loaded with 1 mM GTP and 2 mM MgCl2 on the column; also called phosphonegative mutation S52A; source: E. coli BL20(DE3)-RIL, purified by glutathione Sepharose, washed but not eluted; not shown: GST, N-terminal, kept

[4] = molecular target: T4, GST-tagged Rab6^GTP (Rab6a/Q72L) K53A mutant (human, UniProt P20340 1-208, Q72L | K53A)
T4 construct: Rab6a, human, full length, Q72L background with K53A; Loaded with 1 mM GTP and 2 mM MgCl2 on the column; source: E. coli BL20(DE3)-RIL, purified by glutathione Sepharose, washed but not eluted; not shown: GST, N-terminal, kept
T4 sequence (P20340 whole entry K53A/Q72L): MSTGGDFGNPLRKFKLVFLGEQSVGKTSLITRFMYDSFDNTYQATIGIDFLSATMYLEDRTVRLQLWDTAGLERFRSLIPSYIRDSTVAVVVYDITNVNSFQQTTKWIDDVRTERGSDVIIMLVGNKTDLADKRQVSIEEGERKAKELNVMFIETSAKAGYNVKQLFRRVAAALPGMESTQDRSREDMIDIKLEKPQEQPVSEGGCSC

T3 sequence (P20340 whole entry S52A/Q72L): as the sequence (P20340 whole entry K53A/Q72L) above, with S52A, A53K counted along it
T2 sequence (P20340 whole entry Q72L): as the sequence (P20340 whole entry K53A/Q72L) above, with A53K counted along it
T1 sequence (P20340 whole entry Q65A/Q72L): as the sequence (P20340 whole entry K53A/Q72L) above, with A53K, Q65A counted along it

- binding result [1]: binds
- binding result [2]: binds
- binding result [3]: binds
- binding result [4]: binds
B1: BicD2-CTD (C-terminal cargo-binding domain of human Bicaudal D2, residues 715-804) (domain or fragment, UniProt Q8TD16 715-804, looked up)
chain: YENEKAMVTETMMKLRNELKALKEDAATFSSLRAMFATRCDEYITQLDEMQRQLAAAEDEKKTLNSLLRMAIQQKLALTQRLELLELDHE
notes: Construct described in Gibson et al, 2022; also called BicD2-CTD WT

Reference: article PMC11077774, “Molecular mechanism for recognition of the cargo adapter Rab6^GTP by the dynein adapter BicD2” (Life Science Alliance, 2024)
